# Reference: a protein production outcome set (Wang et al. 2014)
# Test: label from the status in PepcDB records
row,Sequence,protein production
1,MATPKFAEIKQYITGCIESGEWEENARVPSENQLAELFVCSRMTARRALTELTDNGVLERSQGLGTFVAGRKSQSSMLAIRNIADEIKDRGHGYSVQQLALEQVNATAPIAIALALDVGSPVFHSILVHCEQGVPLQVEERYVNPAFAPDYLVQDFSEQTPHEYLSQVAPLTEAHHTIEAIIASSELQQRLAIPATEPCLQISRRTWSRQGVVSFAKLVHPGSRFKLGGHLTFNK,failed
2,MATPSGIVRFPGAGCVVEFMQGNRPQIAWVMEEQGGRLRLFLPNRRETKLAAARLLPWAGPRYDGERSRDDMVALLEEHRQRRDTREADIQPLELWEMVQGEVEQASVEWFAELLGETPGVDEVAAMGRALLGCKTHFKFHPPDFEVYDAAKVEARMVEMEAARVREALVEAGQAFIKVLWDVHCRRRTMPLPSSSEMPPAEVAERLATLLRTRMADPDDHDSDSVWKQVTKGLPDDAHMPLHLAAAWGIVPVHHNFWMDRAGYAPGDEWAIDHVDEIDALMKRVEALREPLVDGTFISIDSSTTRDIDDAFDISPSPEGGWILRLVLASPVTGWDFDGPLDRAVLRRATSIYLPERSHHMMPETLGTDAYSLLAGQDRPALLVTFDIAPDGSLRSTTPATGWVRLAANLTYTECEACLTGEGDAGRAAPHADRLALADALARVRQQLRVAAGAVIIERDDPKVTLEGEGCAVKVHVAPPDETPRAQLLVSEMMILANAAIASWGAERGITLLHRTQDVGIPREYAGVWNQPHDIARVVKALAPAHLEPVAKPHAGIAVPAYSPVTSPLRRYPDLVNEAQVIHYLTHGTPRWSREEVEAMLPLLGARLDAAGQVQRFRPRYWKLFYIRQQGDKAWHEAVVTEENDAFVTISLPEVQIFVRGRRSTFGDKVYPGQHFNVRLGKVHPLNNEIQIVDAMEG,failed
3,MATPTQTPTKAPEEPDPFYYDYNTVQTVGMTLATILFLLGILIVISKKVKCRKADSRSESPTCKSCKSELPSSAPGGGGV,not failed
4,MATRAPASTLRQIPSGIWMLGCVSLLMDISSEIIHSLLPVFMVTTLGASALAVGLIEGAAEATALIVKVFSGVLSDYLGKRKALAVLGYGLGALSKPLFAVAPGVGTILAARLSDRIGKGIRGAPRDALVADIAPAHLRGAAFGLRQALDTVGAFLGPLIAIGLMMLWANDFRAIFWVAVVPGVLSVALLAFGVKEPQTHTGDKRVNPIRRANLARLGPAYWGVVAVGTAFALARFSEAFLILRVQQEGLPLFMAPLVLVTMNAVFAVTAYPFGKLADNCSHDKLLVAGLAVLIVADTVLAVGSHWSIALVGVALWGLHMGMTQGLLATMVADAAPADLRGTAFGVFNLASGLALLAASVMAGWLWDRHGAAATFHAGAGFCVLTIALLIHRLRNRPASGAATR,failed
5,MATSAKTLQQRMGIIALTWPIFIETLLQSLLGISDIFMLSHYSDNAVAAVGLTTQLMFFMMVMSMMVSTGASILISQNNGAGRTQEATDIGVASVALSLGLAVVMGAAMFFCAHGIIGLFELEPKVAGYGYDYLLICGSLSIGLVMNIAFAAILRSYGFTRSAMLVTLSTGLMNVLGNYIALYSPFGLPVYGVTGVAISTVTSQLMGALIMLAVIRSKHIPLPMQRLNSLPRSTYWSVMRIGLLNAGEMLSYNVAQMTIIYFISQMGTLSLTAYTYGLNISRFIYCFSVALGQAAQIQTGYYVGKQWFDEITVRVQKYCLVGFIVSLAIVLIFFWQRFTIVGWLSENPEVIQLTALLLLGSIALETGRVFNLVIISALKGAGDVAFTVRVGLFSMWGIGVLLAWFFGLYLGYGVLAAWLAVAADEWVRGLIMVQRWRSGRWQRFTRIPPATSA,failed
6,MATSRTQRDVWVYVGIGAMVSALVLFSLVPLVMGLWQPRPAADGVVNGGTPLESQALGYQLVLEREPDNVNALQGLLEIRLQQKNLAAAIAPLERLGQIRTDQVQYRILLAQLKTQLEDNAGAAKVYREILTQSPHNIQALKGLSGLYAQQERPAEAVAIVQNAITQAIKAQTGAPGTVPPDQLTSLQLLLGEIYLSQNRPDQAIAIYEAASKVNGNDFRPVLAQAQVMAQTGKVKEADPFFQQAIMLAPVQYKDPIKNIALQVTNQALANQNGAPETSIPSPAPILKSE,failed
7,MATTKKKPIHVNVDENLKEEAEQLFDDLGLNMTSAITIFLKQSINEQAIPFMINKGNKETLQALKDIKEGNVHGGFSSVEDLMEDLNALEHHHHHH,not failed
8,MATVEEIEKYCRNCVSRDFVNGKGLVCKRTRELPDFDEECENFEKDEELLKMAPPKPDDFPVSMTEEELLAEENLPKGVLYASVACILGAVAWSLISVSTGLQMGYMAIGVGFLVGFAMRQGKGIRPVFGLLGAALALISCVLGDFLSIIGFAAKDYDMTFFEVLAGVDYGEIFSVMVKNVVSMSALFYGIAVYEGYKLSFRAQKHPVGGKI,failed
9,MAVARHETGPFATVSALASQVHPVFMLPPLATSLFGGLLSGGFWPPVAVLHAGAMFFAVYTAHVKDGYVDFHVRGEDDDHPLTGAGCRMALVGAGVGFALCTAAIWLLVGPGAALLTLPTWIIGYTHAPQLDMNPVGATMGYPAGIALALLGGYYAQVTTLTPRAVGLAAVFLLLLTGIKIIDDEQDYDYDRSIQKRTVAVVLGHQRARQLALGLFGVALLGIVGLSVALPGIPPSAAAAALVFGAVAAIAQRGDPETATMLLIRGSYLLLAVLVTAVWFRPLA,failed
10,MAVDDSEEGKPAESEAPLDLLQDWEHARAHAVPFSDSLLTECILVDQECVTNTKIKQEVNASSGCNTTPDSNTQDSDKIDYIESMDVCSNVEIESTEDSIVTGLNSGNAEDVDMTPGWRRKRNQKSKKSYIGTKDVLDQTLDKDIPLNKQNRRFPITARPVKRECVKKYERETFENGNERVYSTSSPRGRVYLLNDAAKL,failed
11,MAVESAAVGVFDSGVGGLSVLREIRARLPSESLLYVADNAHVPYGEKSAEYIRERCERIGDFLLEQGAKALVLACNTATAAAAAELRERYPQVPLVAMEPAVKPAAAATRNGRVGVLATTGTLKSARFAALLDRFASDVQVFTQPCPGLVERIEAGDLYGPQTRALLERLLAPILEQGCDTLILGCTHYPFVKPLLAELIPAEMAVIDTGAAVARQLERVLSARALLASGQAATPRFWTSALPEEMERILPILWGSPESVGKLVV,failed
12,MAVEVVYRSSRDPERLFMDKAEADRHDKMLELAERLAEVLHKAVPSLTEQQVEEAGIYMAKNRDVFARAFKSQPDALAELLEGTAAE,not failed
13,MAVQENLLLGAKASKNATLTLVFLSILKGVVGFYSGSASLIADAIHTSLDIFTSLAVWIGLKLSMRGSEEKFPYGYYKADNLVSLFVSIIILFSGVELVREALLNIASPVEIKLQGIALGTAVFSVIAMYALSQYKFKVGKQIDSQALIADALHSYTDVFSSLIVAITIIGSLLGVLWLDSAGVLVISLMIFKLGIGMAKDSILTLMDAWLDKDSIERIRQNVGSIQGVKTVDEIRLRKSGLVVFGEIEIEIEGDASLKRVEMLFEEIEKTVKNEVKNLEHLVVNVKPEKISVMKIAVPVLMQEGLHSKVSRHFSKAPYFIFIELENNDIISWDVSENPAAGLEKKKGLKAAEFLKDQGVNVLIAGEIGEAPFHTLRDNFVKLLQMPEEIEDVEQVVKKVSELNTLTAPTE,failed
14,MAVTRRLLMAVVGLFSLLVYFTAAYVGYLLLLPVWDSRPSPLMAALFVLGTAIALGVVNYWAATAQLKRSLNAVELPRARAPEAYHRLDALVDQMNVETPTLLLAELPVPNAFAIGGGTGTIVVDRRLFRLLSAAEFEGLLAHELAHLETRDALVQTVAYSFVQTLVGLIGLALFPIVVLTGGIARSLALLRGDPSSWSRSWLGRAQRYSLQVVAGLGFAVTLLLLGYSRRRELAADDRAVEITGNPVGLARALAKIEQASTPDPGLLRQVYVHSEADNELSRLLSTHPPIDERMQRLQDRAQYGNFTKSSERPSSRR,failed
15,MAVYANTSVQDFYEFWLEEVKKKSLSYNSYYSFKKTVQNYILPLYGRLSMGKLRKNHVKRIYKKTYETSPSVAKIVKTVLTTSFKYALRYGYVEEDYVTGLKWNRVILEHHHHHH,failed
